# B1: Homeobox protein extradenticle (Drosophila melanogaster (Fruit fly)), P40427 (parent)
# chain: MEDPNRMLAHTGGMMAPQGYGLSGQDDGQNAGSENEVRKQKDIGEILQQIMSISEQSLDEAQARKHTLNCHRMKPALFSVLCEIKEKTVLSIRNTQEEEPPDPQLMRLDNMLIAEGVAGPEKGGGGAAAASAAAASQGGSLSIDGADNAIEHSDYRAKLAQIRQIYHQELEKYEQACNEFTTHVMNLLREQSRTRPITPKEIERMVQIIHKKFSSIQMQLKQSTCEAVMILRSRFLDARRKRRNFSKQASEILNEYFYSHLSNPYPSEEAKEELARKCGITVSQVSNWFGNKRIRYKKNIGKAQEEANLYAAKKAAGASPYSMAGPPSGTTTPMMSPAPPQDSMGYPMGSGGYDQQQPYDNSMGGYDPNLHQDLSP
# B2: Pre-B-cell leukemia transcription factor 1 (Mus musculus), P41778 (parent)
# chain: MDEQPRLMHSHAGVGMAGHPGLSQHLQDGAGGTEGEGGRKQDIGDILQQIMTITDQSLDEAQARKHALNCHRMKPALFNVLCEIKEKTVLSIRGAQEEEPTDPQLMRLDNMLLAEGVAGPEKGGGSAAAAAAAAASGGAGSDNSVEHSDYRAKLSQIRQIYHTELEKYEQACNEFTTHVMNLLREQSRTRPISPKEIERMVSIIHRKFSSIQMQLKQSTCEAVMILRSRFLDARRKRRNFNKQATEILNEYFYSHLSNPYPSEEAKEELAKKCGITVSQVSNWFGNKRIRYKKNIGKFQEEANIYAAKTAVTATNVSAHGSQANSPSTPNSAGSSSSFNMSNSGDLFMSVQSLNGDSYQGAQVGANVQSQVDTLRHVISQTGGYSDGLAASQMYSPQGISANGGWQDATTPSSVTSPTEGPGSVHSDTSN
# Experiments:
# lab_drome lab, P10105 = variants of: B1; details: with lab_drome lab
# abdb_drome Abd-B, P09087 = variants of: B1; details: with abdb_drome Abd-B
# ubx_drome Ubx, P83949 = variants of: B1; details: with ubx_drome Ubx
# abda_drome abd-A, P29555 = variants of: B1; details: with abda_drome abd-A
# hxb8_mouse Hoxb8, P09632 = variants of: B2; details: with hxb8_mouse Hoxb8, P09632
# Chain of hxb8_mouse Hoxb8, P09632 (P09632 whole entry): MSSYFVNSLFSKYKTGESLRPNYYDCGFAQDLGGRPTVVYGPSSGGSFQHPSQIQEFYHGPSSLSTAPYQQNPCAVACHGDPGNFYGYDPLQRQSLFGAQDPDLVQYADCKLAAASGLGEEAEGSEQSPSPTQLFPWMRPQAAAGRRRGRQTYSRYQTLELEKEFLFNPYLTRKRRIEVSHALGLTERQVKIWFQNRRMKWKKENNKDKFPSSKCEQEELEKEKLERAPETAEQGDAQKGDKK
# Chain of ubx_drome Ubx, P83949 (P83949 whole entry): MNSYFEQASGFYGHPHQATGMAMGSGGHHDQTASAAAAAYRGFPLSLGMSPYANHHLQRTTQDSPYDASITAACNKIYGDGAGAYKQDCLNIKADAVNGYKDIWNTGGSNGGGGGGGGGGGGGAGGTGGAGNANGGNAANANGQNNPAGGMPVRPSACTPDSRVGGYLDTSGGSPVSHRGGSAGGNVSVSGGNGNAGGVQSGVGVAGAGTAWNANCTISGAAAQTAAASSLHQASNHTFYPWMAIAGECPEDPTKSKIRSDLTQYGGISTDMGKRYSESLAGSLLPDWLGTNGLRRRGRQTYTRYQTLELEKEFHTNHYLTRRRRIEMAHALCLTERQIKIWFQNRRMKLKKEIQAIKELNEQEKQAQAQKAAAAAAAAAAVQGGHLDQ
# Chain of lab_drome lab, P10105 (P10105 whole entry): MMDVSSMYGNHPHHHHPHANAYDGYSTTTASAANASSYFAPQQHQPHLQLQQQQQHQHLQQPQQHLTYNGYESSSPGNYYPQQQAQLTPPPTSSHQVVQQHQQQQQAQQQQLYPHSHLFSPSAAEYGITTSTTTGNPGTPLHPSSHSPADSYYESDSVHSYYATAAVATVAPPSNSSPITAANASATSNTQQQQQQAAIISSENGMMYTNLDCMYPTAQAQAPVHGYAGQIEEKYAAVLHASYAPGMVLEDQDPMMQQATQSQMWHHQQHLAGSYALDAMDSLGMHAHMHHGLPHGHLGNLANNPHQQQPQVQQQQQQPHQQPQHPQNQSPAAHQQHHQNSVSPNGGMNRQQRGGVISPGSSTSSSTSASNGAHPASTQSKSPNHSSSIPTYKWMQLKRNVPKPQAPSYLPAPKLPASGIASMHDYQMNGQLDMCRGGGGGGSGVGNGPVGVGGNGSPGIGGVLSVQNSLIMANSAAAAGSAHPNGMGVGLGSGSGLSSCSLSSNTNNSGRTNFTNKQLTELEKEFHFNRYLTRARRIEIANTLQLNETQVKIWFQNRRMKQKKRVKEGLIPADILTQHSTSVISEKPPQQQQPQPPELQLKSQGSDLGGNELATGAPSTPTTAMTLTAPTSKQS
# Chain of abda_drome abd-A, P29555 (P29555 whole entry): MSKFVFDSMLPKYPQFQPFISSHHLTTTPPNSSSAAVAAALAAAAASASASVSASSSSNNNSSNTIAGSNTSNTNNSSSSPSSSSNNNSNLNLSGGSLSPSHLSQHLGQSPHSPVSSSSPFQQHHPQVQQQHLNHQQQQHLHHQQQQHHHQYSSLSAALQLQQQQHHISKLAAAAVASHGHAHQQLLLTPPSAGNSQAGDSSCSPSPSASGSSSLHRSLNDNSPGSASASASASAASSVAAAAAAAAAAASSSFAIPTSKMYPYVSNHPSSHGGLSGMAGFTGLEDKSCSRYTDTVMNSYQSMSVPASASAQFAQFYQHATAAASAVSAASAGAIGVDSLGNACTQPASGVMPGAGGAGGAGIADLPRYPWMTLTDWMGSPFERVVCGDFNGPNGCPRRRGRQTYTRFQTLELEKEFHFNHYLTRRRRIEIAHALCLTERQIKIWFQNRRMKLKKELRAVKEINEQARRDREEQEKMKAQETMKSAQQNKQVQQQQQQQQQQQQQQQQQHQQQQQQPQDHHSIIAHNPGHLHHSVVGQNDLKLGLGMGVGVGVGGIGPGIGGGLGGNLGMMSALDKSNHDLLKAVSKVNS
variant,measurement,setting,value
MEDPNRMLAHTGGMMAPQGYGLSGQDDGQNAGSENEVRKQKDIGEILQQIMSISEQSLDEAQARKHTLNCHRMKPALFSVLCEIKEKTVLSIRNTQEEEPPDPQLMRLDNMLIAEGVAGPEKGGGGAAAASAAAASQGGSLSIDGADNAIEHSDYRAKLAQIRQIYHQELEKYEQACNEFTTHVMNLLREQSRTRPITPKEIERMVQIIHKKFSSIQMQLKQSTCEAVMILRSRFLDARRKRRNFSKQASEILNEYFYSHLSNPYPSEEAKEELARKCGITVSQVSAWFGNKRIRYKKNIGKAQEEANLYAAKKAAGASPYSMAGPPSGTTTPMMSPAPPQDSMGYPMGSGGYDQQQPYDNSMGGYDPNLHQDLSP [N287A],effect of a mutation on the interaction,"lab_drome lab, P10105",decreasing interaction strength
same,effect of a mutation on the interaction,"abdb_drome Abd-B, P09087",disrupting interaction strength
same,effect of a mutation on the interaction,"ubx_drome Ubx, P83949",decreasing interaction strength
same,effect of a mutation on the interaction,"abda_drome abd-A, P29555",decreasing interaction strength
MDEQPRLMHSHAGVGMAGHPGLSQHLQDGAGGTEGEGGRKQDIGDILQQIMTITDQSLDEAQARKHALNCHRMKPALFNVLCEIKEKTVLSIRGAQEEEPTDPQLMRLDNMLLAEGVAGPEKGGGSAAAAAAAAASGGAGSDNSVEHSDYRAKLSQIRQIYHTELEKYEQACNEFTTHVMNLLREQSRTRPISPKEIERMVSIIHRKFSSIQMQLKQSTCEAVMILRSRFLDARRKRRNFNKQATEILNEYFYSHLSNPYPSEEAKEELAKKCGITVSQVSAWFGNKRIRYKKNIGKFQEEANIYAAKTAVTATNVSAHGSQANSPSTPNSAGSSSSFNMSNSGDLFMSVQSLNGDSYQGAQVGANVQSQVDTLRHVISQTGGYSDGLAASQMYSPQGISANGGWQDATTPSSVTSPTEGPGSVHSDTSN [N282A],effect of a mutation on the interaction,"hxb8_mouse Hoxb8, P09632",disrupting interaction strength
